These results are taken from the DeepSol protein solubility set.

A short description of this data set: soluble on expression in E. coli; label from the status in PepcDB or PDB records.
Turning to “MGKRLKSNARKSAVNKLVKKTDNRIKEEQRVIRTPKVDEQELKLVRAPKISSAMFMKYNTQLGPPFHVIVDTNFVNFAVKNRIDMFQGFMDCLFAKTIVYATDCVLAELEKVRRFKIALKVLKDPRVQRLKCEHKGTYADDCLVQRVTQHKCYIVATCDRDLKRRIRKIPGVPIMYIVNHRFSIERMPDAYGAPMN”, the “soluble on expression in E. coli” value is reported as “not soluble”.

For the sequence “MRLRLALFSSLLAATFAITGCDQSSETPDNAATISIEHAQGTTLVPLNPQKVVILNPSVLDNADALHIKVAGVPQTSTHLPAFLSKYSGPEYMNTGTLFEPDYEALSQAKPDLIIAGGRAQDAYNKLSAIAPTIALDVDTQHFTQSLTQRTEQLASIFGKEEEAKTLLGNFSSQVNAIKQKSANAGSAMVLMISGGKMSAYTPGSRFGFIFDELGFTPAATFAESGRHGNVVTSEFILNANPDWLFVLDRDNAIGRTEGQSAQQVLDNPLIHKTKAWQNDRIVYLDSASLYIAGGVQSYTQLMNKVSAILDKPVSEQ”, the “soluble on expression in E. coli” value is given as “not soluble”.

For “MTLNIQGIAASSGIAIAKAFRLENPEFNIEQKSITNEAAEIARLEAALEKAKTELEAIKDHAFAELGADKAAIFEAHLLVLNDPELVNPVKDKVNSEKVNAEFAMDEVASMFISMFENMDNEYMKERAADIRDVTKRVLAHLLGINFSNPGTNSEEVIIIAEDLTPSDTAQLNRKYAKGFTTDIGGRTSHSAIMARSMEIPAVVGTKVVMEKIQNGDIVIIDGLDGEVIVNPSEETLRSFEEKKAKFEEQKAEWAKLKDQATVTSDGHHVELVANIGTLNDVQGIIDNGGEGVGLYRTEFLYMGRDNLPTEEEQFEAYKAVLEGVKEGQPVVVRTLDIGGDKELPYLHLPKEMNPFLGYRAIRLCLDEQDVFRTQLRALLRASVYGNLKIMFPMIATLDEFRQAKAILLEEKAKLVEVGTTVSDSIEVGMMVEIPASAVLADQFAKEVDFFSIGTNDLIQYTMAADRMNEQVSYLYQPYNLSILRLVKMVIDAAHKEGKWAGMCGEMAGDSLAIPLLLGLGLDEFSMSATSILPARTQLSKLSKAEMETLAEKALMMSTAEEVVELVKSI”, the “soluble on expression in E. coli” value is on record as “not soluble”.

Turning to “MTSDGMDEWPTGRLLSTAARLVEHSWEDILRSQNMTHAGLICLHTIADRPASQRDIAKVSRVTDQTISRTIDRLERAGYVTRETDPLDERRKRVAITESGRAIYRRLLALEKEDAALTAAVGDVGPLREQLLLLVRSLGLPTRD”, the “soluble on expression in E. coli” value is “not soluble”.

In the case of “MGSDKIHHHHHHMQTAARRSFDYDMPLIQTPTSACQIRQAWAKVADTPDRETADRLKDEIKALLKETNAVLVAHYYVDPLIQDLALETGGCVGDSLEMARFGAEHEAGTLVVAGVRFMGESAKILCPEKTVLMPDLEAECSLDLGCPEEAFSAFCDQHPDRTVVVYANTSAAVKARADWVVTSSVALEIVSYLKSRGEKLIWGPDRHLGDYICRETGADMLLWQGSCIVHNEFKGQELAALKAEHPDAVVLVHPESPQSVIELSDVVGSTSKLLKAAVSRPEKKFIVATDLGILHEMQKQAPDKQFIAAPTAGNGGSCKSCAFCPWMAMNSLGGIKYALTSGRNEILLDRKLGEAAKLPLQRMLDFAAGLKRGDVFNGMGPA”, the “soluble on expression in E. coli” value is reported as “not soluble”.

In the case of “MKIVRRDFVRNGPGSVKMVAEDSDDLWYAYNLIAVGDSVMAVTFRKVQREIPGGGRDSERVKLKLEVQVEEVDYDKDGSVLRIRGKNILENEHVKIGAFHTLELELKRPFVLRKEMWDSMALDTLKQASDPAASADLAVVLMQEGLAQIFLVGRSVTSSRARIETSIPRKHGPAIAGYESALKKFFENVLQAFVKHVDFSVVRCAVVASPGFTKDQFHRHLLLEAERRQLRPIIENKSRIILVHTNSGYRHSLGEVLHAPNVMNMIKDTKAAKEVKALNDFHNMLSTEPDRACYGPKHVEVANERMAIQTLLITDELFRNSDVKTRKKYVNLVESVKDSGGDAFIFSAMHVSGEQLAQLTGIAALLRFPLPELEDIEM”, the “soluble on expression in E. coli” value is recorded as “soluble”.

Turning to “MNNTYNEKTHTLIKQLLKKFSPKVPGFAYMASFDSGVTYKGAVGLASIEENLPITTKSVFNIASVSKQFTAFSILLLEQEGRLSLDDSIVKFVPSIGTYAEPVTLRHLIHHTGGLVDYMELAHAENIEFTDILTVEQSLKHLNGHQIARFPVGTKFEYSNTGYFLLSLVVEKVSGKSLRQFAKERIFDSLNMKDTTIVDCYPTTISIARGYSKNEQGAYMVYESPWEHTGDGAVHATVEDLVKWGENLTTGTVGGKELVKRMSEIGPEISPTRETIIANEDYAFGLRLAEGFNCRYLEHSGSWAGYRSYFMRFPKEYLTVVVLSNYDGFDSKKYANEIAGIILEK”, the “soluble on expression in E. coli” value is listed as “not soluble”.

“MEMRELVGQFVERMQVLRHLVPILPDEQLYVRFESDDETALLLIGKESAARGMENDERKTLTVRGSKEALASLLNGELKLQQLVRLREVHVSGSFRQLLLLESLLHLAKPYRHVG”: the “soluble on expression in E. coli” value is “not soluble”.

Consider “MSMPETKTRSVALTPPLHTPRLLLLPLQLEDAPAMQSLFNHWEVVRYLTHHVPWPYPEGEALRYLREDALPAMQDGEEWHWSIRLRSQQDRLIGSACMMDEQDNNRGFWLSPAYQGLGLMSEVCVAIDRFWFETLKRPVLRVAKCALNEASCRLSQREGMRLVTVQESQFVCGTTQEQLWELTRDEWRANNGG”, for which the “soluble on expression in E. coli” value is on record as “not soluble”.

In the case of “MGSDKIHHHHHHMEKTVQLEHMNTRVFVEGAYDTALIPLGSCESHGDHLPFAMDALTAHKLALGVAERMEKVFVLPPTFFGFSQHYWHKPMSISLSQDTNIRVIADILDSLAHWKIRNVLIINGHDGNISAIDVAARAARLRHPDMKIGSLDAWWVTAGNLLPKDTFEVWNGLGHGGEGETSIGLACFPELVDMAHARGMIPEVDENVKELWDFSELTDYGATGAPEKATREKGQAMYDVLVDYLVAYLTKRRDTNWAYNPK”, the “soluble on expression in E. coli” value is recorded as “not soluble”.

For the sequence “MPEGPAAVLAPRRKTRQLQVGTVGVGSDFPVSVQSMCTTKTHDVNATLQQIAELTASGCDIVRVACPRQEDADALATIAKKSQIPVIADIHFQPRYIFAAIEAGCAAVRVNPGNIKEFDGRVKEVAKAAGDAGIPIRIGVNAGSLDPRLMQKYGKATPEALVESALWEAGLFEEHGFGDIKISVKHNDPVIMVEAYRQLAAQCNYPLHLGVTEAGPAFQGTIKSAVAFGALLADGIGDTIRVSLSAPPAEEIKVGTQILQSLNLRPRKLEIVSCPSCGRAQVDVYTLADEVTAGLEGMEIPLRVAVMGCVVNGPGEAREADLGVASGNGKGQIFVKGKVIKTVPEAQIVETLIEEAMRIAEEMEGDATSGSPVVTVS”, the “soluble on expression in E. coli” value is “not soluble”.

Turning to “MGHHHHHHMSADFGLIGLAVMGQNLILNAADHGFTVCAYNRTQSKVDHFLANEAKGKSIIGATSIEDFISKLKRPRKVMLLVKAGAPVDALINQIVPLLEKGDIIIDGGNSHFPDSNRRYEELKKKGILFVGSGVSGGEEGARYGPSLMPGGSEEAWPHIKNIFQSISAKSDGEPCCEWVGPAGAGHYVKMVHNGIEYGDMQLICEAYDIMKRLGGFTDKEISDVFAKWNNGVLDSFLVEITRDILKFDDVDGKPLVEKIMDTAGQKGTGKWTAINALDLGMPVTLIGEAVFARCLSALKNERIRASKVLPGPEVPKDAVKDREQFVDDLEQALYASKIISYAQGFMLIREAAATYGWKLNNPAIALMWRGGCIIRSVFLGQITKAYREEPDLENLLFNKFFADAVTKAQSGWRKSIALATTYGIPTPAFSTALSFYDGYRSERLPANLLQAQRDYFGAHTFRVLPECASDNLPVDKDIHINWTGHGGNVSSSTYQA”, the “soluble on expression in E. coli” value is listed as “soluble”.

“MYRNFFSLSELPFSISPDPKYLFMSERHREALTHLTYGLGEVGGFALLTGEVGTGKTTISRCLMEQLPQNTQAAFILNPTLSCQELLATLCDQLKIRYRKTGASLKTLTDKISEKLLKNHENDINTLLIIDEAQHLQPEVLEQLRLLTNLETNTKKLLQVILIGQPELQQLLQRRDLRQL”: the “soluble on expression in E. coli” value is “not soluble”.

On to “MSLPHLSLADARNLHLAAQGLLNKPRRRASLEDIPATISRMSLLQIDTINIVARSPYLVLFSRLGNYPAQWLDESLARGELMEYWAHEACFMPRSDFRLIRHRMLAPEKMGWKYKDAWMQEHEAEIAQLIQHIHDKGPVRSADFEHPRKGASGWWEWKPHKRHLEGLFTAGKVMVIERRNFQRVYDLTHRVMPDWDDERDLVSQTEAEIIMLDNSARSLGIFREQWLADYYRLKRPALAAWREARAEQQQIIAVHVEKLGNLWLHADLLPLLERALAGKLTATHSAVLSPFDPVVWDRKRAEQLFDFSYRLECYTPAPKRQYGYFVLPLLHRGQLVGRMDAKMHRQTGILEVISLWLQEGIKPTTMLQKGLRQAITDFASWQQATRVTLGRCPQGLFTDCRTGWEIDPVA”, for which the “soluble on expression in E. coli” value was “not soluble”.

Consider “MSTQIKVTPEQLEQAAKTVKNTRSSLEYIHQDLYSQTEYIASQWSGASSDRFYQMFNEAKPMMFNILQELDKIAVELERAAVKFREADELYGGNLVDSDIQEGAMCGKIPPKSEESFFNNKDLNAAWTGISTGFVDGAVDAWEGLISLGDKETWLNMRDAIVNYEETIPAALNALSDSFVNNLWHGDMESREHYAAYGIATLGLGLLGDKGLSKAGQVGKGAAITGFTKGKSLVTNSPAYRNALHILNNYEFKAGNHLSYAGVGSIQKYLQKAAPYTYEGPNGPKTIRLRLGELAGDKHPVTGIRYDLDGFPIFKALSEVKLKEADFKKSRPTHDRICSKALYEQIMKDPKLAAKFTEEEIELFKLGEVPENYTWHHHQEAGRMQLVDYETHRKTGHTGGYKIWGKDSDK”, for which the “soluble on expression in E. coli” value is given as “not soluble”.

Take “MSLGKLIVPILKSPSHLGHSSSRVNRLYNEDKYSANLLQVKESQIFNFSIFDGHGGDQCSTYLAENLSLALEDLDQLVENDNDRQELFKKYAKNVGGYWKRWYKHRDNTVANWEKERIKLKNFLSDDLATRVPLAFLNADYNFFSKEQKSGSTCTSAMIETIYSKPGTFQPFFENYYFNRHTISKLSIGHLGDTRAIVADKNGLAHTLTTDHHPLNPIEAKRLRKYAANFFMTDSFGEERFVALANTRAFGDVDYKEVGVTAEPDFNQYIIGDLDAIKQFLTPDEIEKYTIGGLGGDESFLILCSDGVTNIMTDQEIADIVLTHVNLKGQTVATPQYCAEQVIKFVEFVGGDDNATCLVIRLNGWGNEGHHHHHH”: the “soluble on expression in E. coli” value is “not soluble”.

For “MGSDKIHHHHHHMHHDLVDVLIIEDESELARLHAELVQKHPRLRLAGMAASLAQARQLLHATPPQLVLLDNYLPDGKGVTLMTDPALATSQCSVIFITAASDMETCSQAIRNGAFDYILKPVSWKRLSQSLERFIQFYDQQREWKIVDQQNVDSLYQLQAKNYRVDSGSKGIEEKTLALVQGLFSDREAHCFSVDEVVSAAGLSKTTARRYLEHGVETGFLEVEMLYGKIGHPRRLYRRAKVKS”, the “soluble on expression in E. coli” value was “not soluble”.

For “MAFEKIIQLKNCRYDYTLSPSVKKFTLKDNTFFETKVGNYELTRLLEKVPNSGEGFQLKIIINKELTGAKINITDKFGLRLVDIFKSEDHHIHQEKFYFLMDSLVERGVFTKSER”, the “soluble on expression in E. coli” value is reported as “not soluble”.

For “MSIKVDMSLDCKGLACPMPIVKTKKAIEGLASGQVIEVKATDKGSTVDIKSWANKVGHQYIGTKHEGDILMHYVRKAHEHEVNEVVKYPHTITNTELEEILVSGEECTVLDVREAAEFAFGHIPSATSMPLGELESLVLDKTKQIYVVCRTGNRSDVACQMLKEKGYTNVKNVIPGMIEWQGNIENLEHHHHHH”, the “soluble on expression in E. coli” value is listed as “soluble”.

For the sequence “MQQQCDTVSAWQSLRGPGTGGYYLFKTTEGGKTDCTYVKGSNFNDAAQTATYTYGNMGSGNQMTQQTASASISGNAIVVGTDHSEVMYSDGSTCDVVRLNGQIELWIHSSATSNTGNLNSCCTDKFNQEKGSRPEHVVYRSTCPNMPQ”, the “soluble on expression in E. coli” value is recorded as “soluble”.

For “MGREVAESCVDTMLMEMVAMYSGRFYANKPELAARRIEAIGYQVGHQLSERYTMERPRFSDHLEAIKFICKDFWSEVFKKQIDNLKTNHRGTFVLQDNKFRWLSRVSIDPSSENETQDPSTPGESKAAQAVSMYLYFPCGIIRGVLSNLGIPCAVSADISSLPTCSFVIRVKA”, the “soluble on expression in E. coli” value is recorded as “not soluble”.
